Consider 26 molecules from patent US20160075790A1 (Bristol-Myers Squibb, published 2016).

To fix the notation:
T1: human isoleucine zipper-CD40L (IZ-hCD40L) (human, UniProt P29965 113-261)
T1 sequence: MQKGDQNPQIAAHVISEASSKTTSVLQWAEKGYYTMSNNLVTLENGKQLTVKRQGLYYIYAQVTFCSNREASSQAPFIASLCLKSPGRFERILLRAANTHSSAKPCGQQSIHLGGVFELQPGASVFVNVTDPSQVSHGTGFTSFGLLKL

B1: BMS2h-765 (other)
VH: EVQLLESGGGLVQPGGSLRLSCAASGFTFSAYTMEWVRQAPGKGLEWVSSIGVTGYDTYYADSVKGRFTISRDNSKNTLYLQMNSLRAEDTAVYYCAKGGQGFDYWGQGTLVTVSS
B2: BMS2h-766 (other)
VH: EVQLLESGGGLVQPGGSLRLSCAASGFTFGDYGMSWVRQAPGKGLEWVSYIDPLGRLTYYADSVKGRFTISRDNSKNTLYLQMNSLRAEDTAVYYCAEDLSSLQYGVSPNFDYWGQGTLVTVSS
B3: BMS2h-752 (other)
VH: EVQLLESGGGLVQPGGSLRLSCAASGFTFSDYAMAWVRQAPGKGLEWVSRIGVEGGDTYYADSVKGRFTISRDNSKNTLYLQMNSLRAEDTAVYYCAKLLRLYRLGFDYWGQGTLVTVSS
B4: BMS2h-774 (other)
VH: EVQLLESGGGLVQPGGSLRLSCAASGFTFREYDMGWVRQAPGKGLEWVSLISPPGRTTYYADSVKGRFTISRDNSKNTLYLQMNSLRAEDTAVYYCAKVVILGYTNRFDYWGQGTLVTVSS
B5: BMS2h-783 (other)
VH: EVQLLESGGGLVQPGGSLRLSCAASGFTFRDYDMGWVRQAPGKGLEWVSTISPLGHFTYYADSVKGRFTISRDNSKNTLYLQMNSLRAEDTAVYYCAKSGFHEYTEGFDYWGQGTLVTVSS
B6: BMS2h-758 (other)
VH: EVQLLESGGGLVQPGGSLRLSCAASGFTFGDYGMNWVRQAPGKGLEWVSHISSNGRFTYYADSVKGRFTISRDNSKNTLYLQMNSLRAEDTAVYYCAETSGYFDYWGQGTLVTVSS
B7: BMS2h-758-2 (other)
VH: B6 VH with D104E
B8: BMS2h-758-5 (other)
VH: B6 VH with T28A, D104E
B9: BMS2h-758-1 (other)
VH: B6 VH with T78M, Q82R, F103Y, D104E
B10: BMS2h-758-4 (other)
VH: B6 VH with Y80F, F103Y, D104E, Q108H
B11: BMS2h-758-3 (other)
VH: B6 VH with G101S, D104E
B12: BMS2h-746 (other)
VH: EVQLLESGGGLVQPGGSLRLSCAASGFTFGSAEMGWVRQAPGKGLEWVSGISRPGQVTYYADSVKGRFTISRDNSKNTLYLQMNSLRAEDTAVYYCAKIRNLHWDVGRQFDYWGQGTLVTVSS
B13: BMS2h-784 (other)
VH: B12 VH with G30D, S31R, E33G, G50L, S52G, P54G, Q56D, V57I
B14: BMS2h-492 (other)
VL: DIQMTQSPSSLSASVGDRVTITCRASQAIELNLEWYQQKPGKAPKLLIYDASMLQSGVPSRFSGSGSGTDFTLTISSLQPEDFATYYCQQYDVYPPTFGQGTKVEIKR
B15: BMS2h-492-6 (other)
VL: B14 VL with L31S
B16: BMS2h-492-5 (other)
VL: B14 VL with T5N, T20S, L31H, V93A
B17: BMS2h-492-7 (other)
VL: B14 VL with L31H, V93A
B18: BMS2h-785 (other)
VL: DIQMTQSPSSLSASVGDRVTITCRASQPIYGWLNWYQQKPGKAPKLLIYLTSGLQSGVPSRFSGSGSGTDFTLTISSLQPEDFATYYCQQIHSSPFTFGQGTKVEIKR
B19: BMS2h-757 (other)
VH: EVQLLESGGGLVQPGGSLRLSCAASGFTFKEYNMAWVRQAPGKGLEWVSSINFAGRTTYYADSVKGRFTISRDNSKNTLYLQMNSLRAEDTAVYYCAKLSLPLDIFSFDYWGQGTLVTVSS
B20: BMS2h-775 (other)
VH: EVQLLESGGGLVQPGGSLRLSCAASGFTFPNYGMLWVRQAPGKGLEWVSSINSSGMETYYADSVKGRFTISRDNSKNTLYLQMNSLRAEDTAVYYCAKFFRLNDHNSVFGFDYWGQGTLVTVSS
B21: BMS2h-754 (other)
VH: EVQLLESGGGLVQPGGSLRLSCAASGFTFSRYDMVWVRQAPGKGLEWVSRINSMGLATYYADSVKGRFTISRDNSKNTLYLQMNSLRAEDTAVYYCAKDYSVAPHGYPLGFDYWGQGTLVTVSS
B22: BMS2h-780 (other)
VH: EVQLLESGGGLVQPGGSLRLSCAASGFTFGSYTMMWVRQAPGKGLEWVSEIDRTGERTYYADSVKGRFTISRDNSKNTLYLQMNSLRAEDTAVYYCAEPGFASLPFDYWGQGTLVTVSS
B23: BMS2h-782 (other)
VH: EVQLLESGGGLVQPGGSLRLSCAASGFTFDDAEMFWVRQAPGKGLEWVSSIDARGLTTYYADPVKGRFTISRDNSKNTLYLQMNSLRAEDTAVYYCAEATSAMYPFDYWGQGTLVTVSS
B24: BMS2h-747 (other)
VH: EVQLLESGGGLVQPGGSLRLSCAASGFTFDDGTMGWARQAPGKGLEWVSLILPSGSRTYYADSVKGRFTISRDNSKNTLYLQMNSLRAEDTAVYYCAKHSLTNRPFDYWGQGTLVTVSS
B25: BMS2h-437 (other)
VL: DIQMTQSPSSLSASVGDRVTITCRASTPIGTMLDWYQQKPGKAPKLLIGHSSWLQSGVPSRFSGSGSGTDFTLTISSLQPEDFATYYCGQHVRPPATFGQGTKVEIKR
B26: BMS2h-781 (other)
VH: EVQLLESGGGLVQPGGSLRLSCAASGFTFTDYTMYWVRQAPGKGLEWVSKISPSGRSTYYADSVKGRFTISRDNSKNTLYLQMNSLRAEDTAVYYCAKDPFGFDYWGQGTLVTVSS

Where a chain is given by its changes, count along the chain named. “And” between values parts separate entries of the source, which are not always exact repeats. Identical values can stand only once.

This test has as its target T1, human isoleucine zipper-CD40L …. As to the kind of experiment: cell-based or functional assay.
Take B1: the “hIZCD40L-driven Human B Cell Proliferation EC50” value is greater than 7 µM. As for B2, the figure is greater than 7 µM; as for B3, greater than 7 µM. Consider B4, for which the “hIZCD40L-driven Human B Cell Proliferation EC50” value was greater than 7 µM. For B5 the value was greater than 2 µM.

B6: the “hIZCD40L-driven Human B Cell Proliferation EC50” value was 5.9 µM.

With B7, the “hIZCD40L-driven Human B Cell Proliferation EC50” value is greater than 7 µM. Turning to B8, the “hIZCD40L-driven Human B Cell Proliferation EC50” value was greater than 7 µM. For B9 the value was greater than 7 µM. As for B10, the figure is greater than 7 µM. With B11, the “hIZCD40L-driven Human B Cell Proliferation EC50” value is greater than 7 µM. On to B12, for which the “hIZCD40L-driven Human B Cell Proliferation EC50” value is greater than 7 µM. As to B13, the “hIZCD40L-driven Human B Cell Proliferation EC50” value is greater than 4.7 µM. B14: the “hIZCD40L-driven Human B Cell Proliferation EC50” value was greater than 7 µM. With B15, the “hIZCD40L-driven Human B Cell Proliferation EC50” value came to 6.3 µM.

In the case of B16, the “hIZCD40L-driven Human B Cell Proliferation EC50” value came out at 2.3 µM. Consider B17, for which the “hIZCD40L-driven Human B Cell Proliferation EC50” value was found to be 1.9 µM. For B18, the “hIZCD40L-driven Human B Cell Proliferation EC50” value was 3.7 µM and > 7 µM.

With B19, the “hIZCD40L-driven Human B Cell Proliferation EC50” value was 6.4 µM. On to B20, for which the “hIZCD40L-driven Human B Cell Proliferation EC50” value was greater than 7 µM. Regarding B21, the “hIZCD40L-driven Human B Cell Proliferation EC50” value was 6.6 µM.

Consider B22, for which the “hIZCD40L-driven Human B Cell Proliferation EC50” value is greater than 7 µM. Turning to B23, the “hIZCD40L-driven Human B Cell Proliferation EC50” value is greater than 7 µM. As to B24, the “hIZCD40L-driven Human B Cell Proliferation EC50” value is greater than 7 µM.

Regarding B25, the “hIZCD40L-driven Human B Cell Proliferation EC50” value stood at 5.7 µM.

As to B26, the “hIZCD40L-driven Human B Cell Proliferation EC50” value is greater than 7 µM.
